Data set [1] deals with CIL-6A6-1A (DNA, G4, circular) ATCTCGACTAGTCAGTGGTGGATATGTGCACACTGTTGTGAACGTATGGTTGTCTCGGATTGGTTGTCTCGGAT
Nature of the data set: fluorescence enhancement.

The subject of data set [2] is CIL-6A6-1 (DNA, G4, circular (5' and 3' ends ligated)) ATCTCGACTAGTCAGTGGTGGATATGGGGAGGCTGTGGTGAGGGTATGGTTGTCTCGGATTGGTTGTCTCGGAT
Nature of the data set: fluorescence enhancement.

In data set [3] the test system is AIR-3A (RNA, G4) GGGGAGGCUGUGGUGAGGG
Nature of the data set: fluorescence enhancement.

Data set [4] has as its target T1, IL-6 (interleukin-6) (human, UniProt P05231 30-212). Put plainly: pull-down, real-time PCR; 1x PBSMT pH 7.2: 137 mM NaCl, 2.68 mM KCl, 8.1 mM Na2HPO4, 1.76 mM KH2PO4, 1 mM MgCl2, 0.025% Tween-20; pull-down 1 h (room temperature in SELEX); MST at 25 C. The conditions noted are these: protein: commercial; circular. Background: Real-time PCR tracks product formation cycle by cycle.

Data set [5] has as its target T2, sIL-6R (soluble IL-6 receptor alpha) (human, UniProt P08887 20-355). The data set is described as above. To be noted: protein: commercial; circular.
Data set [6] addresses T1, IL-6 (interleukin-6). Put plainly: pull-down, real-time PCR; affinity largely retained; 1x PBSMT pH 7.2: 137 mM NaCl, 2.68 mM KCl, 8.1 mM Na2HPO4, 1.76 mM KH2PO4, 1 mM MgCl2, 0.025% Tween-20; pull-down 1 h (room temperature in SELEX); MST at 25 C. The conditions noted are these: protein: commercial; circular.
Data set [7] has as its target T2, sIL-6R (soluble IL-6 receptor alpha). Nature of the data set: MST; 1x PBSMT pH 7.2: 137 mM NaCl, 2.68 mM KCl, 8.1 mM Na2HPO4, 1.76 mM KH2PO4, 1 mM MgCl2, 0.025% Tween-20; pull-down 1 h (room temperature in SELEX); MST at 25 C. The conditions noted are these: protein: commercial.
The target of data set [8] is T1, IL-6 (interleukin-6). Put plainly: pull-down, real-time PCR; fully functional; 1x PBSMT pH 7.2: 137 mM NaCl, 2.68 mM KCl, 8.1 mM Na2HPO4, 1.76 mM KH2PO4, 1 mM MgCl2, 0.025% Tween-20; pull-down 1 h (room temperature in SELEX); MST at 25 C. To be noted: protein: commercial; circular.
The target of data set [9] is T2, sIL-6R (soluble IL-6 receptor alpha). The data set is described as above. To be noted: protein: commercial; circular.
The target in data set [10] is T1, IL-6 (interleukin-6). Nature of the data set: pull-down, real-time PCR; smaller Kd than CIL-6A; value only in figure; 1x PBSMT pH 7.2: 137 mM NaCl, 2.68 mM KCl, 8.1 mM Na2HPO4, 1.76 mM KH2PO4, 1 mM MgCl2, 0.025% Tween-20; pull-down 1 h (room temperature in SELEX); MST at 25 C. The conditions noted are these: protein: commercial; circular; two putative antiparallel G4 motifs.

The target in data set [11] is T2, sIL-6R (soluble IL-6 receptor alpha). The data set is described as above. The conditions noted are these: protein: commercial; circular; two putative antiparallel G4 motifs.
The target in data set [12] is T1, IL-6 (interleukin-6). Nature of the data set: MST; 1x PBSMT pH 7.2: 137 mM NaCl, 2.68 mM KCl, 8.1 mM Na2HPO4, 1.76 mM KH2PO4, 1 mM MgCl2, 0.025% Tween-20; pull-down 1 h (room temperature in SELEX); MST at 25 C. To be noted: protein: commercial; linear.
The mark [13] stands for this setting: order of intensities similar to ThT.

Positions count from the first letter of the chain named.

T2 sequence (P08887 20-355): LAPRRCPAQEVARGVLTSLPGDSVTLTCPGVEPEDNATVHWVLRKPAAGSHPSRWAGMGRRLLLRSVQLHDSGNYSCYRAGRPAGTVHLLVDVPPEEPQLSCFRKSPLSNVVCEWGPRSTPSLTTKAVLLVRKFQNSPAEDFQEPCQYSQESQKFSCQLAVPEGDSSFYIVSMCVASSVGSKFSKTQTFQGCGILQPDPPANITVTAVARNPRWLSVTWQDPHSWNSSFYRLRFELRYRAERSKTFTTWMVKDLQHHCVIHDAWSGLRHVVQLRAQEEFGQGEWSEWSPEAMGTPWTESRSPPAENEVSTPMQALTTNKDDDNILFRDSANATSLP
T1 sequence (P05231 30-212): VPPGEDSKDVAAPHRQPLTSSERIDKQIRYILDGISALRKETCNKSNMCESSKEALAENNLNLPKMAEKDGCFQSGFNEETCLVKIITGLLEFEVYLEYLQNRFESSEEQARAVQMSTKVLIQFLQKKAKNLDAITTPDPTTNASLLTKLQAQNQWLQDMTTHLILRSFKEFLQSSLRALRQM

Regarding `CCc1c(C)c2cc3nc(cc4nc(cc5c(CC)c(C)c(cc1[nH]2)n5C)C(C)=C4CCC(=O)O)C(CCC(=O)O)=C3C`, the binding entry in data set [1] (setting [13]) is “yes”; in data set [2] (fluorescence decreased by added 50 and 100 mM Li+) it was “yes”; in [3] (setting [13]), “yes”.

Turning to `Cc1ccc2c(c1)sc(-c1ccc(N(C)C)cc1)[n+]2C`, the binding result in data set [1] (excitation 425 nm, intensity below CIL-6A6-1) is “yes”; in data set [2] (excitation 425 nm, highest intensity of the five sequences) it was “yes”; in data set [3] (excitation 425 nm, second highest intensity, with or above CIL-6A6-1A), “yes”.

B1: CIL-6A4-1 (ssDNA)
DNA: ATCTCGACTAGTCAGGGATACCGGATGGGGAGGCTGTGGTGAGGGTATGGTTGTCTCGGATTGGTTGTCTCGGAT
modifications: circular
Regarding B1, the binding result (in the data set with IL-6 (interleukin-6) [4]; in [5]) was “binds” in each case.

B2: CIL-6A-C (ssDNA)
DNA: ATCTCGACTAGTCAGTGGTGGATACCGGATTTTTTTTTTTTTTTTTTTTTATGGTTGTCTCGGATTGGTTGTCTCGGAT
modifications: circular
B2: the figures for the binding result (in [5]; with IL-6 (interleukin-6) [6]) were “no binding” and “binds”, respectively.

B3: AIR-3A (structured_RNA)
RNA: GGGGAGGCUGUGGUGAGGG
For the molecule B3, the Kd (in general, the equilibrium constant for the complex coming apart) in data set [7] (G4, 2-tiered) was 67.5 nM.

B4: CIL-6A (ssDNA)
DNA: ATCTCGACTAGTCAGTGGTGGATACCGGATGGGGAGGCTGTGGTGAGGGTATGGTTGTCTCGGATTGGTTGTCTCGGAT
modifications: circular (5'-3' ligated)
Take B4: the Kd came to 8.5 nM in the data set with IL-6 (interleukin-6) [4] and 6.9 nM in data set [5].

B5: CIL-6A6 (ssDNA)
DNA: B4 DNA with C25T, C26T, G27T, G28T, A29T
modifications: circular
For the molecule B5, the binding result (in the data set with IL-6 (interleukin-6) [8]; in [9]) was “binds” each time.

B6: CIL-6A4 (ssDNA)
DNA: B4 DNA with G17T, G18T
modifications: circular
Regarding B6, the binding result (in the data set with IL-6 (interleukin-6) [8]; in [9]) was “binds” each time.

B7: CIL-6D (ssDNA)
DNA: ATCTCGACTAGTTAGACGCTACGTGCGGATGGGGAGGCTGTGGTGAGGGTTGGTGTTCTCGGATGATGGTGTCTCGGAT
modifications: circular
For B7, the binding result in data set [5] is listed as “binds”.

B8: CIL-6C (ssDNA)
DNA: ATCTCGACTAGTCATATGGTGTAGATCCTTGGGGAGGCTGTGGTGAGGGGGTTGAAGGTAGTTGCTCGTTGTCTCGGAT
modifications: circular
On to B8, for which the binding result (with IL-6 (interleukin-6) [4]; in [5]) was “binds” each time.

B9: CIL-6A6-1 (structured_DNA)
DNA: ATCTCGACTAGTCAGTGGTGGATATGGGGAGGCTGTGGTGAGGGTATGGTTGTCTCGGATTGGTTGTCTCGGAT
modifications: circular
As for B9, the Kd with IL-6 (interleukin-6) [10] was < 8.5 nM; in data set [11], < 6.9 nM.

B10: IL-6A6-1 (linear form of CIL-6A6-1) (ssDNA)
DNA: B9 DNA
modifications: linear
For the molecule B10, the binding result (with IL-6 (interleukin-6) [12]; in data set [7] (linear)) was “no binding” throughout.

B11: CIL-6A-R (ssDNA)
DNA: ATCTCGACTATTTTTTTTTTTTTTTTTTTTGGGGAGGCTGTGGTGAGGGTTTTTTTTTTTTTTTTTTTTTGTCTCGGAT
modifications: circular
For the molecule B11, the binding result with IL-6 (interleukin-6) [4] is given as “no binding”.

B12: CIL-6A46 (ssDNA)
DNA: ATCTCGACTAGTCAGGGATATGGGGAGGCTGTGGTGAGGGTATGGTTGTCTCGGATTGGTTGTCTCGGAT
modifications: circular
As to B12, the binding result (in the data set with IL-6 (interleukin-6) [4]; in data set [5]) was “binds” throughout.

B13: CIL-6B (ssDNA)
DNA: ATCTCGACTAGTCAGGTGTTGTAATGGTAAGGGGAGGCTGTGGTGAGGGTTGGTTGTCACGGATAGTTGTGTCTCGGAT
modifications: circular
As to B13, the binding result in [5] was “binds”.
